{
  "source": "patent US20230124851A1",
  "about": "(INHIBRX LNC, published 2023)",
  "binders": {"B1": {"name": "cx5067 (bispecific antibody)", "chain 1": "EVQLVESGGGLVQPGGSLRLSCAASGFTFSSFGMHWVRQAPGKGLEWVAYISSDSSAIYYADTVKGRFTISRDNAKNSLYLQMNSLRDEDTAVYYCGRGRENIYYGSRLDYWGQGTTVTVSSASTKGPSVFPLAPSSKSTSGGTAALGCLVKDYFPEPVTVSWNSGALTSGVHTFPAVLQSSGLYSLSSVVTVPSSSLGTQTYICNVNHKPSNTKVDKKVEPKSCDKTHTCPPCPAPPVAGPSVFLFPPKPKDTLMISRTPEVTCVVVDVKHEDPEVKFNWYVDGVEVHNAKTKPREEEYNSTYRVVSVLTVLHQDWLNGKEYKCKVSNKALPAPIEKTISKAKGQPREPQVYTLPPSREEMTKNQVSLTCDVSGFYPSDIAVEWESDGQPENNYKTTPPVLDSDGSFFLYSKLTVDKSRWEQGDVFSCSVMHEALHNHYTQKSLSLSPGKGGGGSGGGGSGGGGSEVQLVESGGGLVQPGGSLRLSCAASGFTFSTYAMNWVRQAPGKGLEWVGRIRSKYNNYATYYADSVKGRFTISRDDSKNTLYLQMNSLRAEDTAVYYCVRHGNFGDSYVSWFAYWGQGTLVTVSS", "chain 2": "EVQLVESGGGLVQPGGSLRLSCAASGFTFSSFGMHWVRQAPGKGLEWVAYISSDSSAIYYADTVKGRFTISRDNAKNSLYLQMNSLRDEDTAVYYCGRGRENIYYGSRLDYWGQGTTVTVSSASTKGPSVFPLAPSSKSTSGGTAALGCLVKDYFPEPVTVSWNSGALTSGVHTFPAVLQSSGLYSLSSVVTVPSSSLGTQTYICNVNHKPSNTKVDKKVEPKSCDKTHTCPPCPAPPVAGPSVFLFPPKPKDTLMISRTPEVTCVVVDVKHEDPEVKFNWYVDGVEVHNAKTKPREEQYNSTYRVVSVLTVLHQDWLNGKEYKCKVSNKALPAPIEKTISKAKGQPREPQVYTLPPSREQMTKNQVKLTCLVKGFYPSDIAVEWESNGQPENNYKTTPPVLDSDGSFFLYSKLTVDKSRWQQGNVFSCSVMHEALHNHYTQKSLSLSPGKGGGGSGGGGSGGGGSQAVVTQEPSLTVSPGGTVTLTCGSSTGAVTTSNYANWVQQKPGKSPRGLIGGTNKRAPGVPARFSGSLLGGKAALTISGAQPEDEADYYCALWYSNHWVFGGGTKLTVL", "light": "DIQLTQSPSFLSASVGDRVTITCKASQNVDTNVAWYQQKPGKAPKALIYSASYRYSGVPSRFSGSGSGTDFTLTISSLQPEDFATYYCQQYNNYPFTFGQGTKLEIKRTVAAPSVFIFPPSDEQLKSGTASVVCLLNNFYPREAKVQWKVDNALQSGNSQESVTEQDSKDSTYSLSSTLTLSKADYEKHKVYACEVTHQGLSSPVTKSFNRGEC", "notes": "anti-CD3 Fv not disulfide-stabilized; also called MAB-FV"}, "B2": {"name": "cx6084 (bispecific antibody, human IgG1, kappa)", "chain 1": "B1 chain 1 with S496N, G510C, G515A, S543A, N552S, D572N, S590K, S591P", "chain 2": "B1 chain 2 with K510Q, S511A, P512F, G568C, T573E, V574I, L575K", "light": "B1 light", "notes": "disulfide-stabilized anti-CD3 Fv; also called MAB-dsFV"}, "B3": {"name": "cx6083 (bispecific antibody)", "chain 1": "B1 chain 1 with G510C", "chain 2": "B1 chain 2 with G568C", "light": "B1 light", "notes": "as for B2"}, "B4": {"name": "cx5187 (bispecific antibody)", "chain 1": "EVQLVESGGGEVQPGGSLRLSCAASGFSFSSNVMMWVRQAPGKGLEWVSTIYSSGTGTFYAESVKGRFTISRDNAKNTLYLQMSSLRPEDTAVYYCATSGPVRGWGPRSQGTLVTVKPPGGGGDKTHTCPPCPAPGGPSVFLFPPKPKDTLMISRTPEVTCVVVDVSHEDPEVKFNWYVDGVEVHNAKTKPREEQYNSTYRVVSVLTVLHQDWLNGKEYKCKVSNKALPAPIEKTISKAKGQPREPQVYTLPPCRDELTKNQVSLWCLVKGFYPSDIAVEWESNGQPENNYKTTPPVLDSDGSFFLYSKLTVDKSRWQQGNVFSCSVMHEALHNHYTQKSLSLSPTGGGGGSGGGGGSGGGGGSEVQLVESGGGLVQPGGSLRLSCAASGFTFNTYAMNWVRQAPGKCLEWVARIRSKYNNYATYYADSVKGRFTISRDDAKNTLYLQMSSLRAEDTAVYYCVRHGNFGNSYVSWFAYWGQGTLVTVKPGGGGEVQLVESGGGEVQPGGSLRLSCAASGFTFSSYHMSWFRQAPGKQREPVATSHHGGTTNYAGSVKGRFTISRDNAKNTVYLQMNTLRAEDTAVYYCKADHGYQGRGYWGQGTLVTVKP", "chain 2": "DKTHTCPPCPAPGGPSVFLFPPKPKDTLMISRTPEVTCVVVDVSHEDPEVKFNWYVDGVEVHNAKTKPREEQYNSTYRVVSVLTVLHQDWLNGKEYKCKVSNKALPAPIEKTISKAKGQPREPQVCTLPPSRDELTKNQVSLSCAVKGFYPSDIAVEWESNGQPENNYKTTPPVLDSDGSFFLVSKLTVDKSRWQQGNVFSCSVMHEALHNRYTQKSLSLSPTGGGGGSGGGGGSGGGGGSQAVVTQEPSLTVSPGGTVTLTCGSSTGAVTTSNYANWVQQKPGQAFRGLIGGTNKRAPGVPARFSGSLLGGKAALTISGAQPEDEADYYCALWYSNHWVFGCGTKLEIKGGGGEVQLLESGGGEVQPGGSLRLSCAASGFSFSINAMGWYRQAPGKRREFVAAIESGRNTVYAESVKGRFTISRDNAKNTVYLQMSSLRAEDTAVYYCGLLKGNRVVSPSVAYWGQGTLVTVKP"}, "B5": {"name": "cx5873 (bispecific antibody)", "chain 1": "DKTHTCPPCPAPGGPSVFLFPPKPKDTLMISRTPEVTCVVVDVSHEDPEVKFNWYVDGVEVHNAKTKPREEQYNSTYRVVSVLTVLHQDWLNGKEYKCKVSNKALPAPIEKTISKAKGQPREPQVYTLPPCRDELTKNQVSLWCLVKGFYPSDIAVEWESNGQPENNYKTTPPVLDSDGSFFLYSKLTVDKSRWQQGNVFSCSVMHEALHNHYTQKSLSLSPTGGGGGSGGGGGSGGGGGSEVQLVESGGGLVQPGGSLRLSCAASGFTFNTYAMNWVRQAPGKCLEWVARIRSKYNNYATYYADSVKGRFTISRDDAKNTLYLQMSSLRAEDTAVYYCVRHGNFGNSYVSWFAYWGQGTLVTVKPGGGGEVQLVESGGGEVQPGGSLRLSCAASGFTFSSYHMSWFRQAPGKQREPVATSHHGGTTNYAGSVKGRFTISRDNAKNTVYLQMNTLRAEDTAVYYCKADHGYQGRGYWGQGTLVTVKP", "chain 2": "B4 chain 2", "notes": "first-named used"}, "B6": {"name": "cx5965 (bispecific antibody)", "chain 1": "EVQLVESGGGEVQPGGSLRLSCAASGFSFSSNVMMWVRQAPGKGLEWVSTIYSSGTGTFYAESVKGRFTISRDNAKNTLYLQMSSLRPEDTAVYYCATSGPVRGWGPRSQGTLVTVKPPGGGGDKTHTCPPCPAPGGPSVFLFPPKPKDTLMISRTPEVTCVVVDVSHEDPEVKFNWYVDGVEVHNAKTKPREEQYNSTYRVVSVLTVLHQDWLNGKEYKCKVSNKALPAPIEKTISKAKGQPREPQVYTLPPCRDELTKNQVSLWCLVKGFYPSDIAVEWESNGQPENNYKTTPPVLDSDGSFFLYSKLTVDKSRWQQGNVFSCSVMHEALHNHYTQKSLSLSPTGGGGGSGGGGGSGGGGGSEVQLVESGGGLVQPGGSLRLSCAASGFTFNTYAMNWVRQAPGKCLEWVARIRSKYNNYATYYADSVKGRFTISRDDAKNTLYLQMSSLRAEDTAVYYCVRHGNFGNSYVSWFAYWGQGTLVTVKP", "chain 2": "B4 chain 2", "notes": "first-named used"}, "B7": {"name": "cx5823 (bispecific antibody)", "chain 1": "B4 chain 1 with T346G, P540L", "chain 2": "B4 chain 2 with T223G"}},
  "note": "Numbering of substitutions follows the chain as printed.",
  "data": [
    {"target": "T1, CD3 on the surface of human T cells (human, UniProt P07766 23-207)", "T1 construct": "whole, on cells; Part of the CD3/TCR complex on cells; also called CD3 epsilon", "T1 sequence (P07766 23-207)": "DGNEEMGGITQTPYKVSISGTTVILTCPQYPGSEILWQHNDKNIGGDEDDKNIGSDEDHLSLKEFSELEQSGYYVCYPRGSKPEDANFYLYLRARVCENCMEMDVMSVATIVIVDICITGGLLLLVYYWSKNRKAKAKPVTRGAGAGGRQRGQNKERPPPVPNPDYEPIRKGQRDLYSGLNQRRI", "assay": "flow cytometry on primary human T cells, anti-human Fc secondary", "method": "(§1) Binding of exemplary multispecific constructs containing an antigen-binding domain directed against B7H3 were assessed for binding to B7H3 positive A375 tumor cells or primary T-cells. The constructs were generated containing antigen-binding domain(s) that were either sdAbs or a FABs, and that were positioned either only N-terminal to the Fc or both N-terminal to the Fc and C-terminal to the anti-CD3 binding domain (see FIGS. 30A and 30C and Table E5). Among the various formats of constructs tested included: sdAb-Fc-dsFV-sdAb (cx3072, cx5952) sdAb-Fc-FV (cx6079), sdAb-Fc-dsFV (cs6080, cx6081), MAB-FV (cx5067) and MAB-dsFV (cx6083, cx6084), where the FV represents the anti-CD3 binding domain composed of VH and VL domain pairs and “ds” notes disulfide stabilized via an engineered interdomain disulfide bond.\n(§2) Binding was assessed as described above via flow cytometry using a fluorophore-conjugated anti-human Fc secondary antibody. cx3072 bound to A375 cells with high affinity (FIG. 31A) but not to isolated T-cells (FIG. 31B). […] The B7H3 -targeting sdAb containing constructs (cx5952, cx6079, cx6080, and cx6081) bound to B7H3 positive cells with similar affinities (depicted in FIG. 31E), with cx5952 displaying higher maximal binding. cx6079, cx6080 and cx6081 contain two identical B7H3-targeting sdAbs, whereas cx5952, and cx3072 contain two distinct B7H3-targeting sdAb that bind different epitopes. The MAB-FV, cx5067, contains two identical B7H3-targeting FAB domains.", "values": [
      {"binder": "B1", "binding result": "no binding"},
      {"binder": "B2", "binding result": "no binding"},
      {"binder": "B3", "binding result": "no binding"}
    ]},
    {"target": "T2, human B7H3 (CD276) on the cell surface (human, UniProt Q5ZPR3 29-534)", "T2 construct": "B7H3 on A375 and other B7H3-positive or transfected cells", "T2 sequence": "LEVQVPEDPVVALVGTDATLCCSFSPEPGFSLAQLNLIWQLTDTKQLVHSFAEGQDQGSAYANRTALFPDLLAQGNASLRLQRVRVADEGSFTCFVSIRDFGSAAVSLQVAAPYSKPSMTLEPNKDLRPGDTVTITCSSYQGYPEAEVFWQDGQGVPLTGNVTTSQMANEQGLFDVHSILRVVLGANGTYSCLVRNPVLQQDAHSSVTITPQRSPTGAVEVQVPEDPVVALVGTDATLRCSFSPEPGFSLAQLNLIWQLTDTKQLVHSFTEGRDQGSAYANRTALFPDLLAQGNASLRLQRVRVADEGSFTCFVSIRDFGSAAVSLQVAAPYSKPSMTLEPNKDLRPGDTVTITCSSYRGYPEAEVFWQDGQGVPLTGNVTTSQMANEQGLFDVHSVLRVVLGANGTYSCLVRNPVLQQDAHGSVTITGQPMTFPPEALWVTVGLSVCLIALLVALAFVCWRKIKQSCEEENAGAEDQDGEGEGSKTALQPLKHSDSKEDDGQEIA", "assay": "flow cytometry on A375 cells (B7H3+), anti-human Fc secondary", "method": "as §1, §2", "values": [
      {"binder": "B4", "binding result": "binds"},
      {"binder": "B5", "binding result": "binds"},
      {"binder": "B6", "binding result": "binds"},
      {"binder": "B7", "binding result": "binds"},
      {"binder": "B1", "binding result": "binds"},
      {"binder": "B2", "binding result": "binds"},
      {"binder": "B3", "binding result": "binds"}
    ]},
    {"target": "T1, CD3 on the surface of human T cells", "assay": "flow cytometry on isolated T cells, anti-human Fc secondary", "method": "as §1, §2", "values": [
      {"binder": "B4", "binding result": "no binding"},
      {"binder": "B5", "binding result": "no binding"},
      {"binder": "B6", "binding result": "no binding"},
      {"binder": "B7", "binding result": "no binding"}
    ]}
  ]
}
